What was measured:
FcγRIIIa (CD16) (F158) = target: T1, FcγRIIIa (CD16) (F158) (Homo sapiens, UniProt P08637); assay: Lumit FcγRIIIa (F158) Binding Immunoassay (Promega), right panel FcγRIIIa (CD16) (F158), competition with Tracer-LgBiT for FcγR-SmBiT, falling luminescence means binding, n=1
T1 construct: m21 joins both polymorphic variants; also called F158 variant of m21
Description: Luminescence is measured on a microplate reader Infinite M200 Pro (Tecan). Graphs show n=1.
Luminescence was measured on a microplate reader Infinite M200 Pro (Tecan). Graphs show n=1.

[1] = target: T2, human NaPi2b on NaPi2b-positive cell lines OVCAR-3 and HCC-78 (human, UniProt O95436 1-690); assay: flow cytometry on NaPi2b-positive HCC-78 cells, Alexa-dye-labeled anti-human IgG H+L secondary antibody, MFI ratio normalized to the non-specific binding control
T2 construct: Endogenous protein
T2 sequence: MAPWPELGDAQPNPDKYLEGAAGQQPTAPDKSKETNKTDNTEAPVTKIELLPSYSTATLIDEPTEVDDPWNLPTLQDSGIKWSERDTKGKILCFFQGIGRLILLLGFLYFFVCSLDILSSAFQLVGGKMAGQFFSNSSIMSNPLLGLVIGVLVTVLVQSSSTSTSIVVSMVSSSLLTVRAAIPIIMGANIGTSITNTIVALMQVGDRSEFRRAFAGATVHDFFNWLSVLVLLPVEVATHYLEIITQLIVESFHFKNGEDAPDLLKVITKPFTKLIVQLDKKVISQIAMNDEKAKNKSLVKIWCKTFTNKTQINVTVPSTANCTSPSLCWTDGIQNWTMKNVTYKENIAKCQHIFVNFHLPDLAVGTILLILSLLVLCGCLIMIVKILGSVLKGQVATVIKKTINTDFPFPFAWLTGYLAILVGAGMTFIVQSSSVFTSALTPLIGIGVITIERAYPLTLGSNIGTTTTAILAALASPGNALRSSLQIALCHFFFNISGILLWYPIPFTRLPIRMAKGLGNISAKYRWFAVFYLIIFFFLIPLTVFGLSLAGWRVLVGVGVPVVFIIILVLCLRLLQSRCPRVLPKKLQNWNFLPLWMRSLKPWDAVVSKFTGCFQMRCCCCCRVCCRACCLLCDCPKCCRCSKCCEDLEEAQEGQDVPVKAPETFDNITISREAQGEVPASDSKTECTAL
Description: (§1) To determine concentration-dependent binding, NaPi2b-positive OVCAR-3 and HCC-78 were incubated with antibodies in concentrations ranging from 0.00075 to 30 μg/ml, stained with an Alexa-dye-labeled anti-human IgG H+L secondary antibody (Thermo Fisher Scientific), and analyzed by flow cytometry. Mean fluorescence intensity (MFI) ratios were normalized to the non-specific binding control. The assay was performed in duplicates and data points were analyzed by a non-linear regression using a one-site specific binding model using Prism 9 software.

[2] = target: T3, purified recombinant human Napi2b antigen consisting of Napi2b-extracellular-loop2 expressed as … (human, UniProt O95436 234-362, limits assumed); assay: ELISA, coated Napi2b-extracellular-loop2-Fc-6-His, apparent KD from one-site fit
T3 construct: Expressed in Expi-HEK293 cells; also called immobilized human NaPi2B; not shown: Fc part; 6-His tag
T3 sequence: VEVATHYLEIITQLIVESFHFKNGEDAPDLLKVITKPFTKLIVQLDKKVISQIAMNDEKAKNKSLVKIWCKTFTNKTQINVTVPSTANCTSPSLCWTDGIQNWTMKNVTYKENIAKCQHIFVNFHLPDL

[3] = target: T4, recombinant hexameric C1q complement protein (human) (human, UniProt P02745 23-245; P02746 28-253; P02747 29-245); assay: HTRF Human C1q Binding Kit (Cisbio), HTRF ratio at 70 nM antibody with the diluent-only background subtracted
T4 construct: also called complement factor C1q
Description: C1q interaction studies were performed using the HTRF Human C1q Binding Kit (Cisbio) according to the manufacturer's instructions. […] If the antibodies bind to human C1q, an anti-C1q antibody labelled with Europium cryptate (fluorescence donor) can come in close proximity to the fluorescence acceptor and fluorescence resonance energy transfer (FRET) is triggered. Fluorescence emission at 665 nm is measured on a microplate reader Infinite M200 Pro (Tecan)._Graphs show means of n=2±SD.
HTRF ratio was calculated by dividing the acceptor emission signal at 665 nm by the donor emission signal at 620 nm and multiplying by 10000.

[4] = target: T2, human NaPi2b on NaPi2b-positive cell …; assay: flow cytometry on OVCAR-3 cells, one-site fit
Description: as §1

FcγRIIa (CD32) (H131) = target: T5, FcγRIIa (CD32) (H131) (Fused to the SmBiT luciferase fragment (Promega Lumit reagent), not carried in the letters); assay: Lumit FcγRIIa (H131) Binding Immunoassay (Promega), left panel FcγRIIa (CD32) (H131), competition with Tracer-LgBiT for FcγR-SmBiT, n=1
T5 construct: m20 joins both polymorphic variants; also called H131 variant of m20; not shown: SmBiT tag (and any linker or purification tag) of Promega's FcγR-SmBiT fusion
T5 chain: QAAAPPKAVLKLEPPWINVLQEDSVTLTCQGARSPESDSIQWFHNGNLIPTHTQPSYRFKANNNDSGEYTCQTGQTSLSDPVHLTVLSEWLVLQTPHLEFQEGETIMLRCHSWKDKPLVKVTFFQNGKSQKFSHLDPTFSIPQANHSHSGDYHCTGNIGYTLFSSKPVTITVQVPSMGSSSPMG

[5] = target: T3, purified recombinant human Napi2b …; assay: ELISA on the isolated immobilized protein; table column Binding KD (nmol/L), ELISA
[6] = target: T6, HEK293 rat-NaPi2B-mCherry (Rattus norvegicus, UniProt Q9JJ09); assay: flow cytometry on HEK293 cells stably expressing rat full-length NaPi2b-mCherry, Alexa-dye anti-human IgG H+L secondary antibody, MFI ratio, one-site specific binding fit; the Kd table prints no unit, the concentration axis is in nM
T6 construct: full-length mCherry fusion stably expressed on HEK293 cells; also called rat full-length NaPi2b-mCherry on HEK293 cells
T6 sequence (target on cells, looked up): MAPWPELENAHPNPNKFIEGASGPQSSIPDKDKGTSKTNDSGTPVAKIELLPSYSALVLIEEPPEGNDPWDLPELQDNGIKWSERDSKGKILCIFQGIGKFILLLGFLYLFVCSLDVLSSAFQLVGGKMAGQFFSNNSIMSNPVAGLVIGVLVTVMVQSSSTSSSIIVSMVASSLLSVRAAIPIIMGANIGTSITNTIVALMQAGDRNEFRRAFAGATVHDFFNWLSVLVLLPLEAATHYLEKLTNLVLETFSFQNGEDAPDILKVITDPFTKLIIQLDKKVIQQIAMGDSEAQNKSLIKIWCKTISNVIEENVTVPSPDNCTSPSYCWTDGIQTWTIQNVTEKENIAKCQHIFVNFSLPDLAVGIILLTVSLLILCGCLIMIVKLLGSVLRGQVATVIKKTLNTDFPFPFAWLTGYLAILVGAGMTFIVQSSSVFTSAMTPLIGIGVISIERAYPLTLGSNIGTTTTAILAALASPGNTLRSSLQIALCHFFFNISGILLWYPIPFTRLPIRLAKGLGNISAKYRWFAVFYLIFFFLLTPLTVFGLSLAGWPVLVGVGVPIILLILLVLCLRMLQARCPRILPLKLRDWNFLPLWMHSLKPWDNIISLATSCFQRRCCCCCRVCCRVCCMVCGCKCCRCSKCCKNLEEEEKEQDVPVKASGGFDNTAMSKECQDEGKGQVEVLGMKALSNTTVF
Excerpt: HEK293 cells stably overexpressing human and rat Napi2b were generated by stable integration of a human or rat full-length Napi2b-mCherry-(GGGS)3x-mCherry expression construct under control of a human EF1 promoter and a Puromycin-selection cassette under a CMV promoter into the parental HEK293 cell line. In brief, cells were transfected with the linearized plasmids using Lipfectamine 2000 (Thermo Fisher) and selected with Puromycin antibiotic. Cells were then single cell cloned in 96-well plates via serial dilution under continuous antibiotic selection. Clones were screened for target expression via flow cytometry and mCherry fluorescence via flow cytometry and fluorescence microscopy. Target- and mCherry-positive clones were expanded and used for further experiments. […] Binding of antibodies was investigated on mCherry-positive cells. Mean fluorescence intensity (MFI) ratios were normalized to the secondary antibody control. The assay was performed in duplicates and data points were analyzed by a non-linear regression using a one-site specific binding model to derive KD values using Prism 9 software.

T4 sequence (P02745 23-245 limits assumed, chain 1 of 3): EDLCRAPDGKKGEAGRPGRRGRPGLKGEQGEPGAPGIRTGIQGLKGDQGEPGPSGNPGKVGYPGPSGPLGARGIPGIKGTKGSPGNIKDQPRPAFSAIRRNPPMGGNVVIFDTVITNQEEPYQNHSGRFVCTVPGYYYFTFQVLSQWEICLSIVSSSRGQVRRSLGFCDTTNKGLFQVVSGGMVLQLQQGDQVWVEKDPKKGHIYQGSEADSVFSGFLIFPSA
T4 sequence (P02746 28-253 limits assumed, chain 2 of 3): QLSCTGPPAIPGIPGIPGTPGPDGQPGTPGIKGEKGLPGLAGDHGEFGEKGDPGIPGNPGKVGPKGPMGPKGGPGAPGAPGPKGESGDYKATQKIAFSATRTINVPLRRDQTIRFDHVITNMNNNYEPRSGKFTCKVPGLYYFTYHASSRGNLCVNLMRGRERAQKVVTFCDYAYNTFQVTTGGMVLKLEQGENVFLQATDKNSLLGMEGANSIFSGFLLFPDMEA
T4 sequence (P02747 29-245 limits assumed, chain 3 of 3): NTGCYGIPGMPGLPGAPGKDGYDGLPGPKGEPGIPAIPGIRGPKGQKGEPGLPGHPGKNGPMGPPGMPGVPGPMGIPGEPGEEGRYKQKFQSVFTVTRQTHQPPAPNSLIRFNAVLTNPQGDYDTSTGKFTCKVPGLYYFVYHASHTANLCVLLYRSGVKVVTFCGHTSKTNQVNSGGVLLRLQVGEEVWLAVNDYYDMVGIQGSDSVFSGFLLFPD
T1 sequence (P08637 17-208 limits assumed): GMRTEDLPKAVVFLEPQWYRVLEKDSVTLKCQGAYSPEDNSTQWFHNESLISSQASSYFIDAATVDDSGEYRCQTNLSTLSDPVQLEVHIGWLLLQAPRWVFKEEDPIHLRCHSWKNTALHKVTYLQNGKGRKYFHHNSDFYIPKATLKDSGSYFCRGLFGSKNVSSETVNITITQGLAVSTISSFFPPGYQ

B1: AV25 mAb, LALA-silenced (AV25 HC-LALA) (antibody, human IgG1, kappa, L234A L235A)
heavy: not shown
light: DIQMTQSPSSLSASVGDRVTITCSASQDIGNFLNWYQQKPGKTVKVLIYYASSLYSGVPSRFSGSGSGTDYTLTISSLQPEDFATYYCQQYSKLPLTFGQGTKLELKRTVAAPSVFIFPPSDEQLKSGTASVVCLLNNFYPREAKVQWKVDNALQSGNSQESVTEQDSKDSTYSLSSTLTLSKADYEKHKVYACEVTHQGLSSPVTKSFNRGEC
notes: also called unmodified AV25 mAb
FcγRIIIa (CD16) (F158)
  binding result: binds
[1]
  EC50 (read off the curve): ~0.4 µg/mL
[2]
  Kd: 0.0106 µg/mL
[3]
  binding result: no binding (tested: 70 nM)
[4]
  Kd: 0.44 µg/mL
FcγRIIa (CD32) (H131)
  binding result: no binding
[5]
  Kd: 0.071 nM
[6]
  Kd: 0.539 nM

From patent US20240182596A1 (TUBULIS, published 2024)
